Measurements taken from patent US20110287963A1.

Key:
[1] = target: GCN4 leucine zipper (wild-type) fused to the α fragment of β-lactamase (E. coli (plasmid pBR322)) (UniProt P03069); test: cell-based or functional assay
[2] = target: GCN4-PP, double proline mutant of the GCN4 leucine zipper, fused to the α fragment of β-lactamase (E. coli (plasmid pBR322)) (UniProt P03069); test: cell-based or functional assay

scFv-GCN4 fused to the ω fragment of β-lactamase (pDMB-P1-ωBLA construct)
MBC (minimum bacteriocidal concentration) on ampicillin, fold over the α-Jun negative control [1]: 2 fold
MBC (minimum bacteriocidal concentration) on ampicillin, fold over the α-Jun negative control [2]: 16 fold
